Data from patent US20200277375A1 (ULTRAHUMAN FOUR, published 2020).
Numbering of substitutions follows the chain as printed. In names and notes the source's numbering stands.

How the values were obtained:
[1] = target: T1, cynomolgus monkey CD47 on transfected CHO-K1 cells (cynomolgus monkey, UniProt A0A5F8AK49 19-323 (rhesus entry)); assay: flow cytometry, cyno CD47-transfected CHO-K1, FIG. 6
T1 construct: whole, on cells; also called cyno CD47+ cells
Procedure: (§1) FIG. 6A-FIG. 6C. Flow cytometric binding to human and cyno CD47+CHO-K1 cells. Commercial anti-CD47 antibody MS1991, human IgG1 (“I IgG1”) and IgG4 (“I IgG4”) Isotype controls, lead library-derived IgGs in both IgG1null (“IgG1N”) and IgG4(S228P) formats were examined for specific binding on cyno-transfected CHO-K1 cells (FIG. 6A), human-transfected CHO-K1 cells (FIG. 6B), and wild type (wt, i.e. untransfected) CHO-K1 cells (FIG. 6C). IgGs were tested at concentrations ranging from 24-100,000 ng/ml. Concentration-dependent binding was observed against both human and cyno cell lines for all CD47-specific antibodies but not Isotype controls.
(§2) Antibodies to CD47 were analysed for concentration-dependent binding at the cell surface via flow cytometry. CHO-K1 cells were stably transfected with either human, mouse or cyno CD47 full-length cDNAs. Anti-CD47 IgGs mVH/mVL, VH-A1/VL-B1, A-D5, G-B6, F-E7 and D-H3, and an isotype control IgG1 were then all tested in IgG1null and IgG4(S228P) formats, alongside a commercial mouse anti-human CD47 monoclonal MS1991, over a concentration range of 100,000-24 ng/ml for binding to human, cyno or wild type control (‘wt’, i.e. untransfected) CHO-K1.

[2] = target: T2, mouse CD47-Fc (mouse, UniProt Q61735 19-140, limits assumed); assay: direct titration ELISA, FIG. 11C
T2 construct: Recombinant CD47-Fc; also called mCD47-Fc; mCD37-Fc [sic]; not shown: Fc part
T2 sequence (looked up): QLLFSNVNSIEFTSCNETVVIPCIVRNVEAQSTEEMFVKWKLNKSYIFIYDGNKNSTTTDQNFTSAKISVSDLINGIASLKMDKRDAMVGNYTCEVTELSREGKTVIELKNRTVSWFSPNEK
Procedure: (§3) FIG. 11A-FIG. 11C. Direct titration ELISA for A-D5.4-derived designer IgGs binding to human, mouse and cyno CD47-Fc proteins. Chimeric anti-CD47 (mVH/mVL), designer A-D5.4-derived clones in human IgG1 null format were titrated (in μg/ml) in a direct binding ELISA against human (FIG. 11A), cyno (FIG. 11B) and mouse (FIG. 11C) CD47-Fc proteins. […] In the figure legends, “IgG1NI” refers to IgG1 null isotype.
(§4) To coat Greiner Bio-One High bind ELISA plates, target proteins were diluted to 1 μg/ml in carbonate buffer and added at 100 μl per well, at 4° C., o/n. Coated plates were washed 3× with PBS pH7.4, blocked with 1% BSA in PBS (380 μl/well) for 1 hr at RT, then washed 3× with PBS-Tween 20 (PBST). CD47 antibodies (100 μl/well; diluted in PBST) were then added and then incubated 1 hr at RT. Plates were then washed 3× with PBST and goat anti-human kappa chain-HRP added (100 μl/well) at RT, for 1 hr. Plates were then washed 3× with PBST and twice with PBS before the addition of 100 μl TMB per well. Reactions were stopped by adding 100 μl 2M H₂SO₄/well and OD was read on a plate reader at 450 nm.

[3] = target: T3, human CD47 on cells (human CD47-transfected CHO-K1; HL60) (human, UniProt Q08722 19-323); assay: flow cytometry, human CD47-transfected CHO-K1, FIG. 6
T3 construct: whole, on cells; also called human CD47+ cells; human CD47+HL60 cells
Procedure: as §1, §2

[4] = target: T4, human CD47-Fc (human, UniProt Q08722 19-139); assay: direct titration ELISA, FIG. 11A
T4 construct: Recombinant CD47-Fc; also called hCD47-Fc; not shown: Fc part
Procedure: as §3, §4

[5] = target: T4, human CD47-Fc; assay: direct titration ELISA, FIG. 9A
Procedure: FIG. 9A-FIG. 9C. Direct titration ELISA for designer IgGs binding to human, mouse and cyno CD47-Fc proteins. Chimeric anti-CD47 (mVH/mVL), designer A-D5-derived clones in human IgG1null format were titrated (in μg/ml) in a direct binding ELISA against human (FIG. 9A), cyno (FIG. 9B) and mouse (FIG. 9C) CD47-Fc proteins. […] In the figure legend, “IgG1NI” refers to IgG1 null isotype.
as §4

B1: mVH/mVL (chimeric VxP037) in human IgG1null format (antibody, V domains shown)
VH: EVQLQQFGAELVKPGASMKLSCKASGYTFTNYYVFWVKQRPGQGLEWIGDINPVNGDTNFNEKFKNKATLTVDKSSTTTYLQLSSLTSEDSAVYYCTRGGYTMDYWGQGTLVTVSS
VL: DVVMTQTPLSLSVSLGDQASISCRSSQSLVHSNGNTYLHWYLQKPGQSPKLLIYKVSYRFSGVPDRFSGSGSGTDFTLKISRVEAEDLGVYFCSQNTHVPRTFGQGTKVEIK
notes: Murine v-domains on human IgG1null (IgG1 L234A/L235A/G237A), kappa; also called VP037; Chimeric anti-CD47
For B1, the “maximum MFI, fold over untransfected CHO-K1” value (from here on “maximum MFI, fold”) [1] was > 10 fold, the binding result [2] was “binds” and the “maximum MFI, fold” value [3] was > 10 fold.

B2: mVH/mVL (chimeric VxP037) in human IgG4(S228P) format (antibody, V domains shown)
VH: B1 VH
VL: B1 VL
notes: IgG4 with S228P; also called mVH/mVL IgG4
In the case of B2, the “maximum MFI, fold” value [1] is reported as > 10 fold and the “maximum MFI, fold” value [3] is reported as > 10 fold.

B3: G-B6 in human IgG4(S228P) format (antibody, V domains shown)
VH: EVQLVQSGAEVKKPGESLKISCKGSGYSFTNYYIFWVRQMPGKGLEWIGDINPVNGDTNFSPSFQGQVTISADKSISTAYLQWSSLKASDTAMYYCARGGYTMDKWGQGTLVTVSS
VL: DIVMTQSPLSLPVTPGEPASISCRSSQSLVHSNGYTYLHWYLQKPGQSPQLLIYKGSYRASGVPDRFSGSGSGTDFTLKISRVEAEDVGVYYCSQNTQTPRTFGQGTKVEIK
notes: IgG4(S228P), kappa; also called G-B6 IgG4
With B3 the “maximum MFI, fold” value [1] was > 10 fold and the “maximum MFI, fold” value [3] was > 10 fold.

B4: F-E7 in human IgG4(S228P) format (antibody, V domains shown)
VH: B3 VH with I48M, D50I, F60Y, S61N, D104G
VL: B3 VL with Y35N, H39D, A60F, N96A, Q98H
notes: IgG4(S228P), kappa; also called F-E7 IgG4
In the case of B4, the “maximum MFI, fold” value [1] is reported as > 10 fold and the “maximum MFI, fold” value [3] is reported as > 10 fold.

B5: A-D5.11 in human IgG1null format (antibody, V domains shown)
VH: B3 VH with I48M, D50I, N55D, F60Y, S61N, K105R
VL: B3 VL with V30L, T36N, G56V, Y58N, A60L, S94F, Q98H
notes: Designer clone from A-D5.4; IgG1null
B5: binds [2]; binds [4].

B6: A-D5.1 in human IgG1null format (antibody, V domains shown)
VH: B3 VH with I48M, D50I, N55D, F60Y, S61N, K105R
VL: B3 VL with V30L, G56V, Y58N, A60L, S94F, Q98H
notes: Designer clone from A-D5; IgG1null
B6: binds [5].

B7: A-D5.13 in human IgG1null format (antibody, V domains shown)
VH: B3 VH with I48M, D50I, N55D, N59R, F60Y, K105R
VL: B3 VL with V30L, T36N, G56V, Y58N, A60L, S94F, Q98H
notes: as for B5
B7: binds [2]; binds [4].

B8: A-D5.12 in human IgG1null format (antibody, V domains shown)
VH: B3 VH with I48M, D50I, N55D, N59R, F60Y, S61N, K105R
VL: B3 VL with V30L, T36N, G56V, Y58N, A60L, S94F, Q98H
notes: as for B5
B8: binds [2]; binds [4].

B9: A-D5.3 in human IgG1null format (antibody, V domains shown)
VH: B3 VH with I48M, D50I, N55D, N59R, F60Y, K105R
VL: B3 VL with V30L, G56V, Y58N, A60L, S94F, Q98H
notes: as for B6
B9: binds [5].

B10: A-D5.17 in human IgG1null format (antibody, V domains shown)
VH: B3 VH with I48M, D50I, N55D, N59R, F60Y, K105R
VL: B3 VL with V30L, N33T, T36N, G56V, Y58N, A60L, S94F, Q98H
notes: as for B5
B10: binds [2]; binds [4].

B11: A-D5.10 in human IgG1null format (antibody, V domains shown)
VH: B3 VH with S28T, I48M, D50I, N55D, F60Y, S61N, K105R
VL: B3 VL with V30L, N33Q, G56V, Y58N, A60L, S94F, N96Q, Q98H
notes: as for B6
B11: binds [5].

B12: VH-A1/VL-B1 in human IgG4(S228P) format (antibody, V domains shown)
VH: B3 VH with I48M, D50I, N55D, N59R, F60Y, Y101F, K105Y
VL: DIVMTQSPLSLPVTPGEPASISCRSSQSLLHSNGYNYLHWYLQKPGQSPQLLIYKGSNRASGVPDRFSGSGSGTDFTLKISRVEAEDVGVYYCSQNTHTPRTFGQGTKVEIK
notes: IgG4(S228P), kappa; also called VH-A1/VL-B1 IgG4
B12 was tested, and the “maximum MFI, fold” value [1] was > 10 fold and the “maximum MFI, fold” value [3] was > 10 fold.

B13: D-H3 in human IgG4(S228P) format (antibody, V domains shown)
VH: B3 VH with I48M, F60Y, M103P, K105Y
VL: B3 VL with V30L, T36N, Y58N, A60F, T97L, Q98H, T99V
notes: IgG4(S228P), kappa; also called D-H3 IgG4
B13 was tested, and the “maximum MFI, fold” value [1] was > 10 fold and the “maximum MFI, fold” value [3] was > 10 fold.

B14: A-D5.6 in human IgG1null format (antibody, V domains shown)
VH: B3 VH with S28T, I48M, D50I, N55D, F60Y, S61N, K105R
VL: B3 VL with V30L, T36N, Y58N, A60L, S94F
notes: as for B6
B14: binds [5].

B15: A-D5.18 in human IgG1null format (antibody, V domains shown)
VH: B3 VH with I48M, D50I, N55D, N59R, F60Y, K105R
VL: B3 VL with V30L, G34A, T36N, G56V, Y58N, A60L, S94F, Q98H
notes: as for B5
B15: binds [2]; binds [4].

B16: A-D5.5 in human IgG1null format (antibody, V domains shown)
VH: B3 VH with S28T, I48M, D50I, N55D, F60Y, S61N, K105R
VL: B3 VL with V30L, T36N, Y58N, A60L, S94F, Q98H
notes: as for B6
B16: binds [5].

B17: A-D5.9 in human IgG1null format (antibody, V domains shown)
VH: B3 VH with S28T, I48M, D50I, N55D, F60Y, S61N, K105R
VL: B3 VL with V30L, G56V, Y58N, A60L, S94F, N96Q, Q98H
notes: as for B6
B17: binds [5].

B18: A-D5.15 in human IgG1null format (antibody, V domains shown)
VH: B3 VH with I48M, D50I, N55D, N59R, F60Y, K105R
VL: B3 VL with V30L, N33G, T36N, G56V, Y58N, A60L, S94F, Q98H
notes: as for B5
B18: binds [2]; binds [4].

B19: A-D5 in human IgG4(S228P) format (antibody, V domains shown)
VH: B3 VH with S28T, I48M, D50I, N55D, F60Y, S61N, K105R
VL: B3 VL with V30L, G56V, Y58N, A60L, S94F, Q98H
notes: IgG4(S228P), kappa; also called IgG4 A-D5
With B19 the “maximum MFI, fold” value [1] was > 10 fold and the “maximum MFI, fold” value [3] was > 10 fold.

B20: A-D5.14 in human IgG1null format (antibody, V domains shown)
VH: B3 VH with I48M, D50I, N55D, N59R, F60Y, K105R
VL: B3 VL with V30L, N33S, T36N, G56V, Y58N, A60L, S94F, Q98H
notes: as for B5
B20: binds [2]; binds [4].
